Results published in patent US10548981B2, “Silk-based drug delivery system” (TRUSTEES OF TUFTS COLLEGE, priority 2004, dated 2020).
“Also recorded” adds a separate entry of the source.

Key:
[1] = Release of HRP and Lysozyme from silk films, analyzed by biological potency tests (FIG. 5); assay type: physicochemical; settings: for release / released protein-drug activity: methanol treated films
[2] = Protein activity after water vapor treatment of drug loaded films; assay type: physicochemical; settings: water vapor treatment of drug loaded films at 25° C. over a saturated Na2SO4 solution for 24 hours
Protocol: Conclusion: Drug release from silk films was a function of the drugs molecular weight and film treatment with methanol. […] This decrease of activity was correlated to methanol sensitivity of Lys (and to a lesser extent for HRP). Alternatively, crystallinity can be induced by water vapor treatment (data not shown) of drug loaded films at 25° C. over a saturated Na2SO4 solution for 24 hours.

[3] = loaded films exposed to methanol

Row | Substance | release / released protein-drug activity ([1]; listed as Lys) | protein activity [2] | continuous release until [1, 3] [days] | initial burst [1, 3] | start of release [1, 3] [days] | release / released protein-drug activity [1] | initial burst, of the total loading ([1]; native silk films) [%] | lag phase ([1]; native silk films)
1 | Lysozyme | did not release substantial amounts over time; also recorded: substantially less protein-drug activity | No loss of protein activity | – | – | – | – | – | –
2 | horseradish peroxidase [HRP] | – | No loss of protein activity | 23 | No initial burst | 5 | substantially less protein-drug activity | 5 | two
